What was measured:
[1] = test system: T1, COP1-interaction-defective VPmt mutant Flag-TRB3
T1 sequence: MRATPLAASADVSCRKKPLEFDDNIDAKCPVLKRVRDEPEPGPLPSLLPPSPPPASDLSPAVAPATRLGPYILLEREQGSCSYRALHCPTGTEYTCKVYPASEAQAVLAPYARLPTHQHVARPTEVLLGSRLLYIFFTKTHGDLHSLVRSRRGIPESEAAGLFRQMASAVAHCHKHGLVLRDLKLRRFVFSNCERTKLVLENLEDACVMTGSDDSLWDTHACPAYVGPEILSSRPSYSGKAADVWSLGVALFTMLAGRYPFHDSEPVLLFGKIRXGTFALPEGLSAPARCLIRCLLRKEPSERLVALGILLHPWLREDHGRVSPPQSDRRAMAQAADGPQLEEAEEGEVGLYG

[2] = test system: T2, Flag-tagged TRB3
T2 sequence: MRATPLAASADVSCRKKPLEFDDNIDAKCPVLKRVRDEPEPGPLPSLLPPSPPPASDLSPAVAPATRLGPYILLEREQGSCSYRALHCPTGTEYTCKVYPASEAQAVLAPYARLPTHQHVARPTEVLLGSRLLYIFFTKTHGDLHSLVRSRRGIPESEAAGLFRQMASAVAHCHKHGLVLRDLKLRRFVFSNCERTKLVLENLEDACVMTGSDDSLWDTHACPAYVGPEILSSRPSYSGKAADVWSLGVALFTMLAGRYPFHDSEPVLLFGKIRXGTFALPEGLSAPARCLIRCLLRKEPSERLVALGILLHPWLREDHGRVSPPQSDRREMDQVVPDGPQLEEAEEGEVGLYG

HA-tagged COP1 (Constitutive Photomorphogenic Protein 1)
degradation of TRB3 protein after removal of MG132 [1]: COP1+DET1 promoted degradation of wild-type but not VPmt TRB3 protein | ubiquitination of TRB3, MS analysis [1]: COP1 promotes ubiquitination of wild-type but not COP1-interaction defective (VPmt) TRB3 at 3 major sites | degradation of TRB3 protein after removal of MG132 [2]: COP1+DET1 promoted degradation of wild-type but not VPmt TRB3 protein | ubiquitination of TRB3, MS analysis [2]: COP1 promotes ubiquitination of wild-type but not COP1-interaction defective (VPmt) TRB3 at 3 major sites

From patent US20080014583
